The assay deals with FMRP (Homo sapiens, UniProt Q06787).

No end group written: not given here.

From publication PMC7473840 (2018) come the findings set out here.

As usually defined, the Kd is a measure of binding affinity in units of concentration. Lower therefore signals tighter binding.

B1: Kv1.2 C-terminal phosphopeptide pS440 C-terminus (peptide)
chain: TSCPKIPSSPDLKKS
modifications: also: phosphoserine pS440 plus a second phosphosite, positions not given here
In turn, B1 yielded a Kd of 0.42 µM.

B2: Kv1.2 C-terminal phosphopeptide pS440 C-terminus (peptide)
chain: TSCPKIPSSPDLKKS
modifications: also: phosphoserine pS440, position in chain not given here
The molecule B2 registered a Kd of 33.9 µM.
